The target in assay [1] is CD47-expressing CHO-K1 cells (UniProt Q08722). Briefly: flow cytometry. (Flow cytometry measures light scatter and fluorescence of single cells or particles in a stream.)
The target of assay [2] is TIGIT-expressing CHO-K1 cells (UniProt Q495A1). Put plainly: flow cytometry.
Sequence of TIGIT-expressing CHO-K1 cells (Q495A1 22-244): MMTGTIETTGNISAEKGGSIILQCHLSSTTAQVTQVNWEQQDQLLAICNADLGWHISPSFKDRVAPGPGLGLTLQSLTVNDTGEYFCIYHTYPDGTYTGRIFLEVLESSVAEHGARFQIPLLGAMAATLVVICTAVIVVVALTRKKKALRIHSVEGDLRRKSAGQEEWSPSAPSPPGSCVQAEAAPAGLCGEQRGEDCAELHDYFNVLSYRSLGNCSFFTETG

Sequence of CD47-expressing CHO-K1 cells (Q08722 19-323): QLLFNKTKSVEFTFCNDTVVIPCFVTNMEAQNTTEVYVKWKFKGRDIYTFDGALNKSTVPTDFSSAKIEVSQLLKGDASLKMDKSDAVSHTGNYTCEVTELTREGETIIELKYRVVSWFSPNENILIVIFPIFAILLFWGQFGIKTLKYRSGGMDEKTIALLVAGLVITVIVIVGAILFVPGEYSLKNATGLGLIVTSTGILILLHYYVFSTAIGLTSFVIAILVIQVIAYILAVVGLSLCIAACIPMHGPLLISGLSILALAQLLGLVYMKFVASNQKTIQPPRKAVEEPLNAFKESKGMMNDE

Usually EC50 stands for the concentration at which the effect is half-maximal. High values mean a need for much substance, low ones an effect from little substance. Take Human IgG: the values for the EC50 in assay [1] and in assay [2] were 0.992 pM and 15 pM, respectively.

These data come from patent US20220267475A1.
